Positions count from the first letter of the chain named. In names and notes the source's numbering stands.

Here are results for 23 molecules from US20250352661A1 (MYTHIC THERAPEUTICS, published 2025).

Experiment [1] concerns the target T1, Human LRRC15 Protein, His Tag (Acro Biosystems) (human, UniProt Q8TF66 22-538, limits assumed).
T1 construct: not shown: His tag
T1 sequence (looked up): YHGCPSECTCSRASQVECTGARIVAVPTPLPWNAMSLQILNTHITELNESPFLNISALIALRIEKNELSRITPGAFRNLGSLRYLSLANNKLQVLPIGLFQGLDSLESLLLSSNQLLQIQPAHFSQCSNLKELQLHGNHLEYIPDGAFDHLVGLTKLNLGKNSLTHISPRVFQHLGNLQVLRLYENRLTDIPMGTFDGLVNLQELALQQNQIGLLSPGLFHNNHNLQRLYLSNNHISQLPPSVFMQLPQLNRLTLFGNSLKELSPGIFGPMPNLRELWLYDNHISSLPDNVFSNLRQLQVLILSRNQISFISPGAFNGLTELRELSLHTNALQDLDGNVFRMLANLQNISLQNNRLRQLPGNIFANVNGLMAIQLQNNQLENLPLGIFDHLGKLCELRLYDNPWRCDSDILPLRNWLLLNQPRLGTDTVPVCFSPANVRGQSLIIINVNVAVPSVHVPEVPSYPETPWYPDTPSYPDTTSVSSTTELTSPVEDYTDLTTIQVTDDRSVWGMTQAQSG
The experiment in a line: BLI; dissociation pH 7.4 black, pH 5.4 grey [1/2); D00025 FIG. 6B (1/2]. On the procedure: Desirable mutations were transferred to a humanized framework (humanized, MYT 8387-8411). After allowing for four days of protein expression, cell culture supernatants were collected, quantified by SDS-PAGE analysis, and the pH dependence of the variant was evaluated using biolayer interferometry (BLI) on an Octet RED 96e instrument. Briefly, cell culture supernatants were diluted based on qualitative expression level of the variant determined by visual examination of SDS-PAGE gels, 5 μL of cell culture supernatant was diluted into 195 μL of 1×PBST, pH 7.4 for high expressors, 25 μL of cell culture supernatant was diluted into 175 μL of 1×PBST, pH 7.4 for medium expressors and 100 μL of cell culture supernatant was diluted into 100 μL of 1×PBST, pH 7.4 for low expressors for loading onto the sensor tips. The resulting diluted supernatants were then captured on an anti-human Fc sensor (Forte Bio). A baseline was established using 1×PBST (50 mM Potassium Phosphate Buffer+150 mM NaCl+0.05% Tween 20) pH 7.4, and the […] was associated with 50 nM of LRRC15 (Human LRRC15 Protein, His Tag, Acro Biosystems) in 1×PBST pH 7.4 for 120 sec to generate an association curve. In the dissociation phase, the antibody-antigen complex on the sensor was exposed to 1×PBST pH 7.4 or pH 5.4, for 300 sec. Association and dissociation phase curves were examined for the starting ABPC antibody (with no substitutions) and each corresponding antibody variant at pH 5.4 and pH 7.4 to inform on two criteria: a) enhanced dissociation (i.e., higher koff values) at pH 5.4 due to histidine substitution compared to the starting ABPC, (with no substitutions), and b) reduced dissociation at pH 7.4 (i.e., lower koff values) compared to pH 5.4 in the antibody variant itself and with the starting ABPC (with no substitutions).
The methods of Examples 9-10 were applied to RabMAb clone 29F1 (rabbit VH SEQ ID NO: 572 and VL SEQ ID NO: 578; and humanized VH SEQ ID NO: 576 and VL SEQ ID NO: 582).

The target of experiment [2] is T2, Human LRRC15 Protein, His Tag (Acro Biosystems) (human, UniProt Q8TF66 22-538, limits assumed).
T2 construct: Bought protein with His tag
T2 sequence (looked up): T1 sequence (looked up)
The experiment in a line: BLI; dissociation pH 7.4 black, pH 5.4 grey [D00009 FIG. 1G]. In general terms: In BLI a coated tip is dipped into the sample, and binding shifts an interference pattern.

B1: MYT9713 (antibody, V domains shown)
VH: EVQLVESGGGLVQPGGSLRLSCTASGFSFSSSHWICWVRQAPGKGLEWVGCIYAGSIGSTYYASWAKGRFTISRDTSKNTVYLQMNSLRAEDTAVYYCERAPNDIYNYYFNLWGQGTLVTVSS
VL: EIVMTQSPSTLSASVGDRVIITCQASENIYNYLAWYQQKPGKAPKLLIYYASTLASGVPSRFSGSGSGAEFTLTISSLQPDDFATYYCQSGYVSKSSTFGQGTKLTVL
notes: also called hu29F1 VH A99E
As for B1, the binding result in experiment [1] is recorded as “binds”.

B2: MYT9714 (antibody, V domains shown)
VH: B1 VH with E99A, R100E
VL: B1 VL
notes: also called hu29F1 VH R100E
As for B2, the binding result in experiment [1] is given as “binds”.

B3: MYT8387 (antibody, V domains shown)
VH: EVQLVESGGGLVQPGGSLRLSCTASGLDFRRTNHICWVRQAPGKGLEWVGCIYIADVVHYYASWAKGRFTFSRDTSKNTVYLQMNSLRAEDTAVYYCARGADGGFVYGMDLWGQGTLVTVSS
VL: EIVMTQSPSTLSASVGDRVIITCQASQSIGNYLSWYQQKPGKAPKRLIYSASTLPSGVPSRFSGSGSGAEFTLTISSLQPDDFATYYCQNNYWLAGYGHPFGQGTKLTVL
notes: hu15G7 VH Y34H; human Fc
With B3, the binding result in experiment [2] is “binds”.

B4: MYT8403 (antibody, V domains shown)
VH: B3 VH with Y53H, F105H
VL: B3 VL
notes: hu15G7 VH Y34H, Y53H, F105H; human Fc
For the molecule B4, the binding result in experiment [2] is recorded as “no binding (tested: 50 nM LRRC15)”.

B5: MYT8399 (antibody, V domains shown)
VH: B3 VH with H34Y, G104H, F105H
VL: B3 VL
notes: hu15G7 VH G104H, F105H; human Fc
Regarding B5, the binding result in experiment [2] was “binds”.

B6: MYT8405 (antibody, V domains shown)
VH: B3 VH with G104H, F105H
VL: B3 VL
notes: hu15G7 VH Y34H, G104H, F105H; human Fc
Turning to B6, the binding result in experiment [2] is listed as “binds”.

B7: MYT8395 (antibody, V domains shown)
VH: B3 VH with V106H
VL: B3 VL
notes: hu15G7 VH Y34H, V106H; human Fc
B7: the binding result in experiment [2] was “no binding (tested: 50 nM LRRC15)”.

B8: MYT8409 (antibody, V domains shown)
VH: B3 VH with H34Y, Y53H, G104H, V106H
VL: B3 VL
notes: hu15G7 VH Y53H, G104H, V106H; human Fc
For B8, the binding result in experiment [2] is on record as “no binding (tested: 50 nM LRRC15)”.

B9: MYT8389 (antibody, V domains shown)
VH: B3 VH with H34Y, G104H
VL: B3 VL
notes: hu15G7 VH G104H; human Fc
Take B9: the binding result in experiment [2] is recorded as “binds”.

B10: MYT8408 (antibody, V domains shown)
VH: B3 VH with H34Y, Y53H, G104H, F105H
VL: B3 VL
notes: hu15G7 VH Y53H, G104H, F105H; human Fc
Take B10: in experiment [2], the binding result was “no binding (tested: 50 nM LRRC15)”.

B11: MYT8390 (antibody, V domains shown)
VH: B3 VH with H34Y, F105H
VL: B3 VL
notes: hu15G7 VH F105H; human Fc
With B11, the binding result in experiment [2] was “binds”.

B12: MYT8401 (antibody, V domains shown)
VH: B3 VH with H34Y, F105H, V106H
VL: B3 VL
notes: hu15G7 VH F105H, V106H; human Fc
For B12, the binding result in experiment [2] is recorded as “binds”.

B13: MYT8392 (antibody, V domains shown)
VH: B3 VH with Y53H
VL: B3 VL
notes: hu15G7 VH Y34H, Y53H; human Fc
Turning to B13, the binding result in experiment [2] is “no binding (tested: 50 nM LRRC15)”.

B14: MYT8406 (antibody, V domains shown)
VH: B3 VH with G104H, V106H
VL: B3 VL
notes: hu15G7 VH Y34H, G104H, V106H; human Fc
With B14, in experiment [2], the binding result is “no binding (tested: 50 nM LRRC15)”.

B15: MYT8398 (antibody, V domains shown)
VH: B3 VH with H34Y, Y53H, V106H
VL: B3 VL
notes: hu15G7 VH Y53H, V106H; human Fc
As for B15, the binding result in experiment [2] was “no binding (tested: 50 nM LRRC15)”.

B16: MYT8388 (antibody, V domains shown)
VH: B3 VH with H34Y, Y53H
VL: B3 VL
notes: hu15G7 VH Y53H; human Fc
Turning to B16, the binding result in experiment [2] is listed as “binds”.

B17: MYT8410 (antibody, V domains shown)
VH: B3 VH with H34Y, Y53H, F105H, V106H
VL: B3 VL
notes: hu15G7 VH Y53H, F105H, V106H; human Fc
Regarding B17, in experiment [2], the binding result is recorded as “no binding (tested: 50 nM LRRC15)”.

B18: MYT8397 (antibody, V domains shown)
VH: B3 VH with H34Y, Y53H, F105H
VL: B3 VL
notes: hu15G7 VH Y53H, F105H; human Fc
For B18, the binding result in experiment [2] is recorded as “no binding (tested: 50 nM LRRC15)”.

B19: MYT8407 (antibody, V domains shown)
VH: B3 VH with F105H, V106H
VL: B3 VL
notes: hu15G7 VH Y34H, F105H, V106H; human Fc
Turning to B19, the binding result in experiment [2] is reported as “no binding (tested: 50 nM LRRC15)”.

B20: MYT8394 (antibody, V domains shown)
VH: B3 VH with F105H
VL: B3 VL
notes: hu15G7 VH Y34H, F105H; human Fc
B20: the binding result in experiment [2] is listed as “no binding (tested: 50 nM LRRC15)”.

B21: MYT8411 (antibody, V domains shown)
VH: B3 VH with H34Y, G104H, F105H, V106H
VL: B3 VL
notes: hu15G7 VH G104H, F105H, V106H; human Fc
Consider B21, for which the binding result in experiment [2] is given as “binds”.

B22: MYT8402 (antibody, V domains shown)
VH: B3 VH with Y53H, G104H
VL: B3 VL
notes: hu15G7 VH Y34H, Y53H, G104H; human Fc
With B22, the binding result in experiment [2] is “no binding (tested: 50 nM LRRC15)”.

B23: MYT8400 (antibody, V domains shown)
VH: B3 VH with H34Y, G104H, V106H
VL: B3 VL
notes: hu15G7 VH G104H, V106H; human Fc
As for B23, in experiment [2], the binding result is reported as “binds”.
